The results in this text go back to paper PMC8064498.

Test [1] concerns the target SARS-CoV-2 prefusion-stabilized spike protein ectodomain (aa 16-1208), expressed in Drosophila S2 cells (SARS-CoV-2) (UniProt P0DTC2). Put plainly: SEC. For orientation: SEC sorts molecules by how far they enter the pores of the column.
The target in test [2] is SARS-CoV-2 S ectodomain (residues 1-1214) with prefusion stabilizing 986P, 987P variants, C-terminal (SARS-CoV-2) (UniProt P0DTC2). Put plainly: SEC.

Take “SARS-CoV-2 prefusion-stabilized spike protein ectodomain (aa 16-1208), expressed in Drosophila S2 cells (from UniProt P0DTC2 16-1208) (domain or fragment)”: the stoichiometry N – broadly, the number of molecules, sites or subunits per partner or assembly – in test [1] came to 2.
In test [2], “SARS-CoV-2 S ectodomain (residues 1-1214) with prefusion stabilizing 986P, 987P variants, C-terminal (from UniProt P0DTC2 14-1214) (domain or fragment)” came in with a stoichiometry N of 3.
